{"source": "patent US20230250148A1", "about": "(published 2023)", "binders": {"B1": {"name": "insulin-Fc fusion protein of SEQ ID NO: 48 (Fc fusion)", "chain": "FVNQHLCGSHLVEALALVCGERGFFYTDPTGGGPRRGIVEQCCTSICSLYQLENYCGGGGAGGGGDCPKCPAPEMLGGPSVFIFPPKPKDTLLIARTPEVTCVVVDLDPEDPEVQISWFVDGKQMQTAKTQPREEQFSGTYRVVSVLPIGHQDWLKGKQFTCKVNNKALPSPIERTISKARGQAHQPSVYVLPPSREELSKNTVSLTCLIKDFFPPDIDVEWQSNGQQEPESKYRTTPPQLDEDGSYFLYSKLSVDKSRWQRGDTFICAVMHEALHNHYTQESLSHSPG"}, "B2": {"name": "insulin-Fc fusion protein of SEQ ID NO: 52 (Fc fusion)", "chain": "B1 chain with D28P, P29G, T30G, P34G, R35G, R36G"}, "B3": {"name": "insulin-Fc fusion protein of SEQ ID NO: 54 (Fc fusion)", "chain": "B1 chain with D28Q, P29G, T30G, P34G, R35G, R36G"}, "B4": {"name": "insulin-Fc fusion protein of SEQ ID NO: 36 (Fc fusion)", "chain": "FVNQHLCGSDLVEALALVCGERGFFYTDPTGGGPRRGIVEQCCHSICSLYQLENYCNGGGGAGGGGDCPKCPAPEMLGGPSVFIFPPKPKDTLLIARTPEVTCVVVDLDPEDPEVQISWFVDGKQMQTAKTQPREEQFNGTYRVVSVLPIGHQDWLKGKQFTCKVNNKALPSPIERTISKARGQAHQPSVYVLPPSREELSKNTVSLTCLIKDFFPPDIDVEWQSNGQQEPESKYRTTPPQLDEDGSYFLYSKLSVDKSRWQRGDTFICAVMHEALHNHYTQESLSHSPG", "modifications": "native N-glycosylation site cNg-NB139", "notes": "HEK293 homodimer"}, "B5": {"name": "insulin-Fc fusion protein of SEQ ID NO: 40 (Fc fusion)", "chain": "B4 chain with N139S", "notes": "non-glycosylated"}, "B6": {"name": "insulin-Fc fusion protein of SEQ ID NO: 41 (Fc fusion)", "chain": "B4 chain with N139D", "notes": "non-glycosylated"}, "B7": {"name": "insulin-Fc fusion protein of SEQ ID NO: 31 (Fc fusion)", "chain": "FVNQHLCGSDLVEALALVCGERGFFYTDPTGGGPRRGIVEQCCHSICSLYQLENYCNGGGGAGGGGRCTDTPPCPVPEPLGGPSVLIFPPKPKDILRITRTPEVTCVVLDLGREDPEVQISWFVDGKEVHTAKTQSREQQFNGTYRVVSVLPIEHQDWLTGKEFKCRVNHIDLPSPIERTISKARGRAHKPSVYVLPPSPKELSSSDTVSITCLIKDFYPPDIDVEWQSNGQQEPERKHRMTPPQLDEDGSYFLYSKLSVDKSRWQQGDPFTCAVMHETLQNHYTDLSLSHSPG", "notes": "HEK293; only 24% homodimer"}, "B8": {"name": "insulin-Fc fusion protein of SEQ ID NO: 62 (Fc fusion)", "chain": "FVNQHLCGSHLVEALELVCGERGFHYGGGGGGSGGGGGIVEQCCTSTCSLDQLENYCGGGGGQGGGGQGGGGQGGGGGDCPKCPAPEMLGGPSVFIFPPKPKDTLLIARTPEVTCVVVDLDPEDPEVQISWFVDGKQMQTAKTQPREEQFSGTYRVVSVLPIGHQDWLKGKQFTCKVNNKALPSPIERTISKARGQAHQPSVYVLPPSREELSKNTVSLTCLIKDFFPPDIDVEWQSNGQQEPESKYRTTPPQLDEDGSYFLYSKLSVDKSRWQRGDTFICAVMHEALHNHYTQESLSHSPG", "notes": "71% homodimer"}, "B9": {"name": "insulin-Fc fusion protein of SEQ ID NO: 61 (Fc fusion)", "chain": "B8 chain with D119A", "notes": "73% homodimer"}, "B10": {"name": "insulin-Fc fusion protein of SEQ ID NO: 53 (Fc fusion)", "chain": "FVNQHLCGSHLVEALALVCGERGFFYTDPTGGGPRRGIVEQCCTSICSLYQLENYCGGGGGQGGGGQGGGGQGGGGGDCPKCPAPEMLGGPSVFIFPPKPKDTLLIARTPEVTCVVVDLDPEDPEVQISWFVDGKQMQTAKTQPREEQFSGTYRVVSVLPIGHQDWLKGKQFTCKVNNKALPSPIERTISKARGQAHQPSVYVLPPSREELSKNTVSLTCLIKDFFPPDIDVEWQSNGQQEPESKYRTTPPQLDEDGSYFLYSKLSVDKSRWQRGDTFICAVMHEALHNHYTQESLSHSPG"}, "B11": {"name": "insulin-Fc fusion protein of SEQ ID NO: 51 (Fc fusion)", "chain": "FVNQHLCGSHLVEALALVCGERGFFYTDPGGGGGGGGGIVEQCCTSICSLYQLENYCGGGGAGGGGDCPKCPAPEMLGGPSVFIFPPKPKDTLLIARTPEVTCVVVDLDPEDPEVQISWFVDGKQMQTAKTQPREEQFSGTYRVVSVLPIGHQDWLKGKQFTCKVNNKALPSPIERTISKARGQAHQPSVYVLPPSREELSKNTVSLTCLIKDFFPPDIDVEWQSNGQQEPESKYRTTPPQLDEDGSYFLYSKLSVDKSRWQRGDTFICAVMHEALHNHYTQESLSHSPG"}}, "key": {"[1]": {"biological_target": "T1, human insulin receptor (IR) on human IM-9 cells (human, UniProt P06213 28-1382)", "T1 construct": "whole, on cells; also called human IR", "T1 sequence (P06213 28-1382)": "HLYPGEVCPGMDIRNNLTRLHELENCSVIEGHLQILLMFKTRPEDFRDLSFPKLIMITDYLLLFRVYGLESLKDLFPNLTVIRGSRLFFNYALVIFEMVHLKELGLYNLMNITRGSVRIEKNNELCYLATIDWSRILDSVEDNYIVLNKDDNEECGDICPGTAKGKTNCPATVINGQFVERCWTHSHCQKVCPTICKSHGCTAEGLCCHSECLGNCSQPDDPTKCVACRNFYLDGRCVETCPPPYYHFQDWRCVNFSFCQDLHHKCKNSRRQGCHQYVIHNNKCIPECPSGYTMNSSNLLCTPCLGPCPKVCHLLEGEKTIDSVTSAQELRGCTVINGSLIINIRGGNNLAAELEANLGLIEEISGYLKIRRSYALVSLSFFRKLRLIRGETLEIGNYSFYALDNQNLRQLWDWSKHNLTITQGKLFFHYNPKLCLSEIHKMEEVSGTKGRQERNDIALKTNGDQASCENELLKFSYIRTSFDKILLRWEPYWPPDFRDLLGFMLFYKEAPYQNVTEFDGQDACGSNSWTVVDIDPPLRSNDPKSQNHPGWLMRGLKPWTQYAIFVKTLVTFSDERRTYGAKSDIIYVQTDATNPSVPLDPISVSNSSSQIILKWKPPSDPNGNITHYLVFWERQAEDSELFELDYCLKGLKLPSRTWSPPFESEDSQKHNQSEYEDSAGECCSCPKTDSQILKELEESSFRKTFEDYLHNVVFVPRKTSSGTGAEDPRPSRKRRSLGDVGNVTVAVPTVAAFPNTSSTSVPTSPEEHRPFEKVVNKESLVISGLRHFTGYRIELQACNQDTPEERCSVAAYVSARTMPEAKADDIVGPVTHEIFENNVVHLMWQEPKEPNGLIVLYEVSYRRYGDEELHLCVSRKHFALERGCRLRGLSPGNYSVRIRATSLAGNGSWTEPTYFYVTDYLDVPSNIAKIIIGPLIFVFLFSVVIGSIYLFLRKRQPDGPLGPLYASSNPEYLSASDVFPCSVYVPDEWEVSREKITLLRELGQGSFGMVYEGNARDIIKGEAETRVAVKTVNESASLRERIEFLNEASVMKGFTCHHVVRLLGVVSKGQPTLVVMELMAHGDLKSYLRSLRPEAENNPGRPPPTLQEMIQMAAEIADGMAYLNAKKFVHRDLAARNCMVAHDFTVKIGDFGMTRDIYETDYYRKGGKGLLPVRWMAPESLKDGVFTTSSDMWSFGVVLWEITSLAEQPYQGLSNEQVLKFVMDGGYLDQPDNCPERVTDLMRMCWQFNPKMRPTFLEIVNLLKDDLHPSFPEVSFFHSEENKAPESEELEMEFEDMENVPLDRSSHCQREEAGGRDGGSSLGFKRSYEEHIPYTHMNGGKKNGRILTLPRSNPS", "assay": "competition with biotinylated RHI on IM-9 cells, flow cytometry, 4 C", "protocol": "(§1) 40 µL of an IM-9 cell suspension (8×10⁶ cells/mL) was then added to each well by multichannel pipette, mixed again gently and incubated on ice for 30 min to allow competitive binding on the IR on IM-9 cells. Cells were then washed twice with 275µL of ice-cold FACS wash buffer (HBSS/2mM EDTA/0.1% Na-azide + 0.5% horse serum) by centrifuging the V-bottom plate at 3000 rpm for 3 min and aspirating the supernatant. Cells were then resuspended in 40µL of FACS staining medium containing 1:100 diluted Streptavidin-PE (Life Technologies) for 20 min on ice. Cells were then washed once with 275 µL of ice-cold FACS buffer and finally fixed with 3% paraformaldehyde for 10 min at room temp. Cells were then washed once with 275 µL of ice-cold FACS buffer and resuspended in 250µl of FACS buffer for analysis.\n(§2) The two insulin-Fc fusion proteins were manufactured in HEK293 cells according to Example 1 and purified using a Protein A column according to Example 4. Their structures were confirmed according to Example 6 by non-reducing and reducing CE-SDS, and the sequences were further identified by LC-MS with glycan removal according to Example 8. Their %homodimer content was measured by size-exclusion chromatography according to Example 10, and their insulin receptor binding affinities were measured according to Example 12."}, "[2]": {"biological_target": "T1, human insulin receptor (IR) on human …", "assay": "competition with biotinylated RHI on IM-9 cells, flow cytometry, 4 C", "protocol": "as §1\nas §2, with “The” for “The two”", "remark": "listed apart in the source"}, "[3]": {"biological_target": "T1, human insulin receptor (IR) on human …", "assay": "competition with biotinylated RHI on IM-9 cells, flow cytometry, 4 C", "protocol": "as §1\nas §2, with “The” for “The two”", "remark": "listed apart in the source"}, "[4]": {"biological_target": "T2, biotinylated recombinant human Fc(gamma)RI (human, UniProt P12314 16-288, biotinylated, site not stated)", "T2 construct": "Bought reagent; construct not described; also called rhFc(gamma)RI; Fc(gamma) receptor I", "T2 sequence (P12314 16-288 limits assumed)": "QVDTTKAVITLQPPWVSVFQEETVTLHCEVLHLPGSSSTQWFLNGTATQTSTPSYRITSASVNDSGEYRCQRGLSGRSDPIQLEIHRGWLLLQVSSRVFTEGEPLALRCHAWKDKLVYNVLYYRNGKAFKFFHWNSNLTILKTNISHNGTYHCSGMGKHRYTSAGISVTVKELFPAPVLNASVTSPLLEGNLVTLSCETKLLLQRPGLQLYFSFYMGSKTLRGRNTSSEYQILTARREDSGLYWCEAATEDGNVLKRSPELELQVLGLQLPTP", "assay": "ELISA, fusion protein coated, biotinylated rhFc(gamma)RI in solution", "protocol": "(§3) The binding of insulin-Fc fusion proteins to the Fc(gamma)RI at pH 7.4 is conducted using an ELISA assay as follows using human Fc(gamma)RI (i.e., rhFc(gamma)RI). Insulin-Fc fusion proteins are diluted to 10 µg/mL in sodium bicarbonate buffer at pH 9.6 and coated on Maxisorp (Nunc) microtiter plates overnight at 4° C., after which the microplate strips are washed 5 times with PBST (PBS/0.05% Tween-20) buffer and blocked with Superblock blocking reagent (ThermoFisher). Serial dilutions of biotinylated rhFc(gamma)RI (recombinant human Fc(gamma)RI; R&D Systems) are prepared in PBST/10% Superblock buffer from 3000 ng/mL to 4.1 ng/mL and loaded at 100 µL/well onto the microplate strips coated with insulin-Fc fusion protein. The microtiter plate is incubated for 1 hour at room temperature after which time the microplate strips are washed 5 times with PBST and then loaded with 100 µL/well of streptavidin-HRP diluted 1:10000 in PBST/10% Superblock buffer. After incubating for 45 min, the microplate strips are washed again 5 times with PBST. TMB is added to reveal the bound Fc(gamma)RI proteins and is stopped with ELISA stop reagent (Boston Bioproducts). The plate is read in an ELISA plate reader at 450 nm, and the OD450 values (proportional to the binding of rhFc(gamma)RI to insulin-Fc protein) are plotted against log concentrations of rhFc(gamma)RI added to each well to generate binding curves using GraphPad Prism software. For groupings of compounds with somewhat similar curves, the OD450 at one of the higher concentrations, for instance at rhFc(gamma)RI concentrations of 3000 ng/mL, can be used to identify differences between coated insulin-Fc fusion protein compounds. […]"}, "[5]": {"biological_target": "T2, biotinylated recombinant human …", "assay": "ELISA, fusion protein coated, biotinylated rhFc(gamma)RI at 3000 ng/mL", "protocol": "as §3\nFinally, select compounds were tested for their likelihood to interact with the immune system by measuring their Fc(gamma) receptor binding activity according to the procedure of Example 15."}, "[6]": {"biological_target": "T1, human insulin receptor (IR) on human …", "assay": "competition with biotinylated RHI on IM-9 cells, flow cytometry, 4 C", "protocol": "as §1\nIn vitro insulin receptor binding for the insulin-Fc fusion proteins of SEQ ID NO: 36 and SEQ ID NO: 38 was tested according to the procedure of Example 12.", "remark": "listed apart in the source"}, "[7]": {"biological_target": "T2, biotinylated recombinant human …", "assay": "ELISA, fusion protein coated, biotinylated rhFc(gamma)RI in solution", "remark": "listed apart in the source"}, "[8]": {"biological_target": "T1, human insulin receptor (IR) on human …", "assay": "competition with biotinylated RHI on IM-9 cells, flow cytometry, 4 C", "protocol": "as §1\nas §2, with “The” for “The two”", "remark": "listed apart in the source"}}, "note": "Positions count from the first letter of the chain named. Read-outs that look alike come from different tables or passages of the source."}
{"binder": "B1", "values": [{"measurement": "IC50", "setting": "[1]", "result": "> 5000", "unit": "nM"}]}
{"binder": "B2", "values": [{"measurement": "IC50", "setting": "[2]", "result": 1930, "unit": "nM"}, {"measurement": "IC50", "setting": "[3]", "result": 4.72, "unit": "µM"}]}
{"binder": "B3", "values": [{"measurement": "IC50", "setting": "[2]", "result": 2200, "unit": "nM"}]}
{"binder": "B4", "values": [{"measurement": "OD450nm", "setting": "[4]", "result": 0.386}, {"measurement": "OD450nm minus assay background", "setting": "[4]", "result": 0.323}, {"measurement": "ratio to SEQ ID NO: 36", "setting": "[4]", "result": 1}, {"measurement": "OD450nm", "setting": "[5]", "result": 0.428}, {"measurement": "OD450nm minus assay background", "setting": "[5]", "result": 0.371}, {"measurement": "ratio to SEQ ID NO: 36", "setting": "[5]", "result": 1}, {"measurement": "IC50", "setting": "[6]", "result": 28, "unit": "nM"}]}
{"binder": "B5", "values": [{"measurement": "OD450nm", "setting": "[4]", "result": 0.14}, {"measurement": "OD450nm minus assay background", "setting": "[4]", "result": 0.077}, {"measurement": "ratio to SEQ ID NO: 36", "setting": "[4]", "result": 0.24}, {"measurement": "fold lower Fc(gamma)RI binding against SEQ ID NO: 36", "setting": "[7]", "result": 4, "unit": "fold"}]}
{"binder": "B6", "values": [{"measurement": "OD450nm", "setting": "[4]", "result": 0.204}, {"measurement": "OD450nm minus assay background", "setting": "[4]", "result": 0.141}, {"measurement": "ratio to SEQ ID NO: 36", "setting": "[4]", "result": 0.44}, {"measurement": "fold Fc(gamma) receptor binding activity against SEQ ID NO: 40 and SEQ ID NO: 42", "setting": "[7]", "result": "~2", "unit": "fold"}]}
{"binder": "B7", "values": [{"measurement": "IC50", "setting": "[6]", "result": 2730, "unit": "nM"}]}
{"binder": "B8", "values": [{"measurement": "IC50", "setting": "[8]", "result": 2300, "unit": "nM"}, {"measurement": "OD450nm", "setting": "[5]", "result": 0.175}, {"measurement": "OD450nm minus assay background", "setting": "[5]", "result": 0.118}, {"measurement": "ratio to SEQ ID NO: 36", "setting": "[5]", "result": 0.32}]}
{"binder": "B9", "values": [{"measurement": "IC50", "setting": "[8]", "result": 3090, "unit": "nM"}, {"measurement": "OD450nm", "setting": "[5]", "result": 0.166}, {"measurement": "OD450nm minus assay background", "setting": "[5]", "result": 0.109}, {"measurement": "ratio to SEQ ID NO: 36", "setting": "[5]", "result": 0.29}]}
{"binder": "B10", "values": [{"measurement": "IC50", "setting": "[1]", "result": 1280, "unit": "nM"}]}
{"binder": "B11", "values": [{"measurement": "IC50", "setting": "[2]", "result": 1920, "unit": "nM"}]}
